Earlier results on one substance are cited in paper PMC2726996.

The target of data set [1] is EGFR (low-affinity sites) (Homo sapiens) (UniProt P00533).
In data set [2] the target is EGFR (high-affinity sites) (Homo sapiens) (UniProt P00533).

For the substance EGF (from UniProt P01133), the Kd was 10 nM in data set [1] and less than 0.1 nM in data set [2].

One may read the Kd as the free concentration of one partner at which half of the binding sites on the other are occupied at equilibrium, for simple one-to-one binding.
